Measured values published in paper PMC3944234.

Target: GAL4-Nef (HIV-1 Nef fused to the GAL4 DNA-binding domain) (HIV-1)
Test: two-hybrid

Substance: VP16-eEF1A (eEF1A fused to the VP16 activation domain) (from UniProt P68104 1-462) (natural protein)
- relative luciferase expression: 1850 r.l.u.
